{"source": "paper PMC9870871", "about": "“Investigating the effects of cyclic topology on the performance of a plastic degrading enzyme for polyethylene terephthalate degradation” (Scientific Reports, 2023)", "proteins": {"B1": {"name": "IsPETase-WT (Pseudideonella sakaiensis) (protein)", "chain": "QTNPYARGPNPTAASLEASAGPFTVRSFTVSRPSGYGAGTVYYPTNAGGTVGAIAIVPGYTARQSSIKWWGPRLASHGFVVITIDTNSTLDQPSSRSSQQMAALRQVASLNGTSSSPIYGKVDTARMGVMGWSMGGGGSLISAANNPSLKAAAPQAPWDSSTNFSSVTVPTLIFACENDSIAPVNSSALPIYDSMSRNAKQFLEINGGSHSCANSGNSNQALIGKKGVAWMKRFMDNDTRYSTFACENPNSTRVSDFRTANCS", "notes": "linear wild-type enzyme, synthetic gene in pET-28a(+) or pET-21b(+), E. coli Shuffle T7 Express, Ni-NTA and SEC; monomer"}}, "substrate": "CC(=O)Oc1ccc([N+](=O)[O-])cc1", "test": "purified protein", "type": "biochemical, Pseudideonella sakaiensis", "details": "50 mM Na2HPO4 pH 7.5, 30 °C, 5% v/v DMSO, 10 nM enzyme, 0-5.0 mM substrate", "data": [{"protein": "B1", "values": [{"measurement": "Km", "result": "2.7 ± 0.3", "unit": "mM"}]}]}
